The experiment concerns the target T1, recombinant human ErbB2/Fc chimera (human, UniProt P04626 23-652).
T1 construct: bought from R&D Systems; also called rhErbB2-Fc; rhErb2-Fc; Fc part of the bought chimera not given; not described
Put plainly: ELISA, coated ErbB2/Fc. Background: ELISA stands for enzyme-linked immunosorbent assay.

B1: 13F121/1-119 (VHH)
VHH: EVQLVESGGGLVQAGGSLRLSCAASGRSFNDYTMGWFRQTPGKEREFVARVWWNGGSAYYADSVKGRFTISIDNAKNTVYLQMNNLTPEDTAVYYCAALYRGRSVYDDWGQGTQVTVSS
notes: C-term myc-His6 tag
B1: the binding result was “binds”.

B2: 12D71/1-125 (VHH)
VHH: EVQLVESGGGLVQAGGSLGLSCAASGRTVSTMGWFRQAPGKEREFVTAITWSGDSTNFADSVKGRFTISRDSAKDTVYLQMNNLKPEDTAVYYCAATTYYSGSYISTLSTSYNYWGQGTQVTVSS
notes: C-term myc-His6 tag
For the molecule B2, the binding result is “binds”.

B3: 21A111/1-124 (VHH)
VHH: EVQLVESGGGLVQAGGSLKLSCAVSGRTIVPYTMAWFRQAPGKEREFVAVTRSGGTTFYADSAKGRFTIARDDAKNTVYLQMNSLKPEDTAVYYCALATAYRTNYSSRDKYDYWGQGTQVTVSS
notes: C-term myc-His6 tag
Regarding B3, the binding result is given as “binds”.

B4: 11A81/1-125 (VHH)
VHH: EVQLVESGGALVQPGGSLRLSCAASDSIRSINIMGWYRQAPGKQREFVAAVTEDGSINYAESVKGRFTISRDKAKNALYLQMNSLKPEDMAVYYCNADRVLYYSDSRYYTGSNYWGQGTQVTVSS
notes: C-term myc-His6 tag
Regarding B4, the binding result is “binds”.

B5: 13G121/1-127 (VHH)
VHH: EVQLVESGGGLVRAGTSLRLSCADSARTFSSAAMGWFRQAPGKEREFVSAISPIGSSKYYADSVKGRFTISRDNAKNTVYLQMDSLKPEDTAVYYCAASSYGSTYYSQGRAYYYDYWGQGTQVTVSS
notes: C-term myc-His6 tag
Take B5: the binding result is “binds”.

B6: 11A121/1-126 (VHH)
VHH: EVQLVESGGGLVQAGGSLRLSCVVSEGTFSSYSMGWFRQAPGKDREFVSAITWNGTRTYYRDSVKGRFTISRDNAKNTVQLQMNSLKPEDTAVYYCAVSQPLNYYTYYDARRYDYWGQGTQVTVSS
notes: C-term myc-His6 tag
As for B6, the binding result is “binds”.

B7: 14H91/1-127 (VHH)
VHH: EVQLVESGGGLVQAGGSLRLSCAASGRTFSRDVMGWFRQAPGKEREFVAAKTWSGASTYYADSVRGRFTISRDNAKNAVYLQMNSLKPEDTAVYYCAARDSSTLDSTYYVGGSYNYWGRGTQVTVSS
notes: C-term myc-His6 tag
For B7, the binding result is “binds”.

B8: 22C65/1-124 (VHH)
VHH: EVQLVESGGGLVQAGGSLRLSCAVSGFLFDSYAMGWFRQAPGKEREFVAAIRWSGSATDYSDSVKGRFTISRDNAKNTVYLQMNSLIPEDTAVYYCAARKTYRSLTYYGEYDSWGQGTQVTVSS
notes: C-term myc-His6 tag
Take B8: the binding result was “binds”.

B9: 11B91/1-125 (VHH)
VHH: EVQLVESGGALVQPGGSLRLSCAASGSIRSINTMGWYRQAPGNQREFVAAVTEGGTTSYAASVKGRFTISRDKAKNTVLLQMDSLKPEDTAVYYCNADRFLYYSAGRYDTGSDIWGQGTQVTVSS
notes: C-term myc-His6 tag
Turning to B9, the binding result is recorded as “binds”.

B10: 11A71/1-125 (VHH)
VHH: EVQLVESGGGLVQPGGSLRLSCAASRSIRSVSVMGWYRLAPGNQRELVATITADGITNYADSVKGRFTVSRDNGRNTVYLQMNSLKPEDTAVYYCNVDRLLYYSSGYYQTSVDVWGQGTQVTVSS
notes: C-term myc-His6 tag
Turning to B10, the binding result is listed as “binds”.

B11: 12D121/1-126 (VHH)
VHH: EVQLVESGGGLVQTGGSLRLSCAASGRAFSTYGMGWFRQAPGKAREFVAAISRSGTGTYYAGSMKGRFTISRDDAKNTVYLQMNSLKPEDTAVYYCAARQPYASGSHYSSTQYTYWGQGTQVTVSS
notes: C-term myc-His6 tag
B11: the binding result is recorded as “binds”.

B12: 13G31/1-125 (VHH)
VHH: EVQLVESGGGLVQAGGSLRLSCAASGGTFSRYKMGWFRQAPGKEREFVAASRWSGGIKYHADSVKGRFTISRDDAKNSIYLQMNTLKPEDTAVYYCAADDYLGGDNWYLGPYDSWGQGTQVTVSS
notes: C-term myc-His6 tag
Regarding B12, the binding result is “binds”.

B13: 12D61/1-116 (VHH)
VHH: EVQLVESGGGLVQPGGSLRLSCAASRSIFSPNVVGWYRQAPGKQRELVAAVTSGGITNYADSVKGRFTISRDNAKNTLYLQMNSLKAEDTAVYYCNARERGIYDSWGQGTQVTVSS
notes: C-term myc-His6 tag
B13: the binding result is “binds”.

B14: 14H21/1-125 (VHH)
VHH: EVQLVESGGGLVQAGGSLRLSCVRSGGYFGSYHIGWFRQAPGNEREFVAAITWNGASTSYADSVKGRFTISRSIAENTVYLQMNKVKPEDTAVYYCAARMYGSDWLPRPEDFDSWGQGTQVTVSS
notes: C-term myc-His6 tag
As for B14, the binding result is recorded as “binds”.

B15: 13E51/1-128 (VHH)
VHH: EVQLVESGGGLVQAGGSLRLSCAASRHTFSGYAMGWFRQAPGKEREFVAAIRWSGGITYYADSVKGRFTISSDNAKNTVYLQMNSLKPEDTALYYCARSVTYYSGSHAYTQEGGYARWGQGTQVTVSS
notes: C-term myc-His6 tag
As for B15, the binding result is listed as “binds”.

B16: 13F41/1-111 (VHH)
VHH: EVQLVESGGGLVQAGGSLRLSCVASGRTLSTTGVGWFRQAPGKERESVATIFVGGTTYYSDSVKGRFTISRDNAKNAVNLQMSNLKPEDTALYYCTIGSYRGQGTQVTVSS
notes: C-term myc-His6 tag
As for B16, the binding result is listed as “binds”.

B17: 12C101/1-111 (VHH)
VHH: EVQLVESGGGLVQAGGSLRLSCVASGRTLSTTGVGWFRQAPGKERESVATIFVGGTTYYSDSVKGRFTISRDNARNAVNPQMNNLKPEDTAVYYCTIGSYRGQGTQVTVSS
notes: C-term myc-His6 tag
Turning to B17, the binding result is “binds”.

B18: 13F42/1-111 (VHH)
VHH: EVQLVESGGGLVQAGGSLRLSCVASGRTLSTTGVGWFRQAPGKGRESVATIFVGGTTYYSDSVKGRFTISRDNAKNAVNLQMSNLKPEDTALHYCTIGSYRGQGTQVTVSS
notes: C-term myc-His6 tag
Take B18: the binding result is given as “binds”.

B19: 11B31/1-124 (VHH)
VHH: EVQLVESGGGLVQAGGSLRLSCAASGGAFGVYHMGWFRQAPGKEREFVAAIRSGGTTLYEDSVKGRFTISRDNAKNTVYLRMNSLKPEDTAVYYCATQIYYRTNYYSQNAYDYWGQGTQVTVSS
notes: C-term myc-His6 tag
Take B19: the binding result was “binds”.

B20: 14H51/1-124 (VHH)
VHH: EVQLVESGGGLVQAGGSLRLSCAASGGTFGVYTMAWFRQAPGKEREFVAAIRSGATTLYEDSVKGRFTISRDDAKNTVYLRMNSLKPEDTAVYYCAAQIYYRTNYYSQNEYDYWGQGTQVTVSS
notes: C-term myc-His6 tag
With B20, the binding result was “binds”.

B21: 21A21/1-124 (VHH)
VHH: EVQLVESGGGLVQAGGSLRLSCAASGGTFGVYHMGWFRQAPGTEREFVAVIRSGGTTLYEDSVKGRFTISRDNAKNTVYLRMNSLKPEDTAVYYCAAQIYYRTNYSSQSNYDYWGQGTQVTVSS
notes: C-term myc-His6 tag
With B21, the binding result is “binds”.

B22: 21A53/1-124 (VHH)
VHH: EVQLVESGGGLVQAGGSLELSCAASGGAFGVYHMGWFRQAPGKEREFVAAIRSGGTTLYEDSVKGRVTISRDDAKNTVYLRMNSLKPEDTAVYYCAAQIYYRTNYYSQNVYDYWGQGTQVTVSS
notes: C-term myc-His6 tag
For the molecule B22, the binding result is on record as “binds”.

B23: 13G81/1-124 (VHH)
VHH: EVQLVESGGGLVQAGGSLRLSCAASGGTFGVYHMGWFRQAPGKEREFVAVIRSGGTTLYADSVKGRFTISRDDAKNTVYLQMNSLKPEDTAVYLCAAQIYYRTNYYSQNNYDYWGQGTQVTVSS
notes: C-term myc-His6 tag
On to B23, for which the binding result is on record as “binds”.

B24: 22B1212/1-122 (VHH)
VHH: EVQLVESGGGLVQPGGSLRLSCAASGFTFSSYAMSWVRQAPGKGLEWVSAINSGGGSTSYADSVKGRFTISRDNAKNTLYLQMNSLKPEDTAVYYCAKYLSFYSDYEVYDYWGQGTQVTVSS
notes: C-term myc-His6 tag
As for B24, the binding result is listed as “binds”.

B25: 12C32/1-127 (VHH)
VHH: EMQLVESGGGLVQAGGSLRLSCATSERTFSTYTMAWFRQAPGKEREFVVAIKSSDNSTSYRDSVKGRFTISRDNAKSTMYLQMNSLKPEDTAVYYCAARREYSTIYTARYPGEYVYWGQGTQVTVSS
notes: C-term myc-His6 tag
As for B25, the binding result was “binds”.

B26: 22B610/1-120 (VHH)
VHH: EVQLVESGGGLVQPGGSLRLSCAASGSIFSINAMGWYRPAPGKQRELVARITSTGSTNYADSVKGRFTISRDNAKNTVYLQMNSLKPEDTAVYYCNADVSPSYGSRWYGWGQGTQVTVSS
notes: C-term myc-His6 tag
Consider B26, for which the binding result is reported as “binds”.

B27: 13E81/1-124 (VHH)
VHH: EVQLVESGGGLVQAGGSLRLSCAASGGTFSVYHMAWFRQAPGKEREFVAAIRSSGGLFYALSVSGRFTISRDNAKDTMYLQMNVLKPEDTAVYYCAASPVYYIDYSSQYKYGYWGQGTQVTVSS
notes: C-term myc-His6 tag
Consider B27, for which the binding result is “binds”.

B28: 22B41/1-124 (VHH)
VHH: EVQLVESGGGLVQPGGSLRLSCTVFGRTFSGDVIGWFRQAPGKEREFVAAISTSGGGTDSADSVKGRFTISKENAKNTVYLQMTILKPEDTAVYYCASSPYGPLYRSTHYYDYWGQGTQVTVSS
notes: C-term myc-His6 tag
In the case of B28, the binding result is given as “binds”.

B29: 13G72/1-118 (VHH)
VHH: EVQLVESGGGLVQAGGSLRLSCAASGRAFSSYAMGWFRQAPGKERDFVAAITSSGSTNYADSVKGRFTISRDNAKNTVYLQMNSLKPEDTAVYYCAAKYYSYYAYDYWGQGTQVTVSS
notes: C-term myc-His6 tag
As to B29, the binding result is given as “binds”.

B30: 11A31/1-120 (VHH)
VHH: EVQLVESGGGLVQAGGSLRLSCAASGGTFSSGVMAWFRQSPGEEREFLALITRNGETKKTADSVKGRFTISRDNAKNGVSLQMDSLKAEDTAVYYCASDPTYGSGRWTYWGQGTQVTVSS
notes: C-term myc-His6 tag
For the molecule B30, the binding result is “binds”.

B31: 11A91/1-124 (VHH)
VHH: EAQLVESGGGLVQAGGSLRLSCTASGRTYSTTMGWFRQAPGKEREFVAAIRWSGGSAFYADSVKGRFTISRDNAKNTVYLQMTSLMPEDTAVYYCADTPVYYQRYYDQNAYDYWGQGTQVTVSS
notes: C-term myc-His6 tag
Consider B31, for which the binding result is “binds”.

Values taken from patent publication US20150232562A1 (Ablynx, published 2015).
